From the Human Domainome abundance scans (Beltran et al. 2025)

B1: Zinc finger homeobox protein 3, residues 2147 to 2202; numbered along this chain, Q15911 (parent)
chain: RPRTRITDDQLRVLRQYFDINNSPSEEQIKEMADKSGLPQKVIKHWFRNTLFKERQ

Variants of: B1
Experiment: abundance fitness (aPCA) (normalised: wild type 0, dead -1); higher = more abundant; growth selection in yeast, the domain comes from the species named
Conditions: Homo sapiens

Abundance fitness of substitutions, site by site:
D19: V 0.014, R -0.031, H -0.034, C -0.094, G -0.125, P -0.336, L 0.032, Y 0.044, N -0.056, Q -0.207, T -0.02, W -0.131, K 0.101, M 0.044, F -0.171, E 0.022, I -0.051, S -0.015
N22: H 0.219, G -0.152, C 0.001, Y -0.076, P -0.035, L -0.092, W -0.19, V -0.022, R 0.116, T 0.079, I -0.052, Q 0.038, D -0.189, S 0.001, F -0.222, A 0.022, E -0.057, K -0.085, M 0.038
L14: P -1.05, T -0.942, Q -1.13, G -0.876, S -0.998, M 0.058, W -0.721, V -0.49, K -1.03, D -0.932, H -0.666, A -0.951, F -0.064, R -0.982, N -1.22, Y -1.02, I -0.217, E -0.947
S23: Y -0.255, M -0.035, L -0.149, F -0.025, I -0.501, D 0.076, N -0.14, G -0.268, T 0.102, V -0.216, A -0.033, C 0.081, E -0.123, Q 0.004, P -0.21, H 0.055, W -0.243, K -0.07, R -0.085
I6: S -0.46, R -0.727, W -0.477, Y -0.123, T -0.448, V -0.084
S25: A -0.14, K -0.045, H -0.537, D -0.225, G 0.024, Q -0.223, N -0.196, P -0.191, F -0.623, C -0.244, M -0.523, E -0.111, I -0.361
R12: H -0.128, G -0.067, P -0.477, C -0.067, V 0.04, K 0.051, S 0.018, A -0.122, M 0.077, Y -0.4, Q -0.082, I 0.046, T -0.205, W -0.456, D -0.21, L -0.085, F -0.193, N -0.061
I20: L -0.036, A 0.009, M 0.02, Q -0.019, H -0.001, D -0.087, K -0.081, F -0.037, P 0.036, V -0.074, T -0.052, N 0.008, G -0.045, E -0.228, C 0.1, W -0.184, Y -0.237
D8: V -0.05, I -0.122, R -0.226, S 0.02, P 0.149, A -0.022, Y -0.215, T -0.001, E -0.012, F -0.204, W -0.277, Q 0.061, C 0.054, L -0.028, M -0.096, H 0.026, G -0.063, N -0.211
Q16: M -0.01, H -0.101, T -0.012, F -0.196, I -0.469, P -0.242, V -0.162, W -0.09, D -0.025, S 0.122, N -0.174, K 0.092, E -0.045, R 0.001, L -0.091, G 0.008, A -0.065
T7: N -0.204, G -0.2, I -0.596, R -0.174, L -0.273, P -0.086, Y -0.388, K -0.336, H -0.336, S 0.054, C -0.367, M -0.162, V -0.208, F -0.432, E -0.133, Q -0.253, A -0.024
V13: S -0.033, K -0.054, P -0.587, T -0.044, Y -0.037, Q 0.043, F -0.012, A -0.22, G -0.415, E -0.01, R -0.243, I 0.097, C -0.149, W 0.003, L 0.055, N -0.227, H -0.199
P24: C -0.534, Y -0.519, G -0.685, H -0.566, M -0.5, S -1, I -0.652, E -0.673, Q -0.747, F -0.746, W -0.485, T -0.585, R -0.716, L -0.315, V -0.413, A -0.606, D -0.8, N -0.873
L11: N -0.019, F -0.216, K 0.095, R 0.034, M -0.04, V -0.252, A -0.019, S -0.161, T -0.026, I -0.126, G -0.088, H -0.399, E 0.142, D -0.182, C -1.12, P -0.962, Y -0.297, Q -0.01
F18: L -0.137, Q -0.203, E -0.555, Y 0.016, H -0.259, D -0.419, C -0.161, W 0.022, G -0.263, S -0.1, R -0.069, N -0.451, T -0.109, K -0.039, V -0.333, A -0.187, M -0.15
R15: T -0.023, M -0.023, D -0.29, Y -0.127, Q -0.045, P -0.898, W -0.125, F -0.152, K -0.074, L -0.244, E -0.048, A -0.23, S -0.067, V -0.226, G -0.256, H 0.099
N21: E -0.005, A -0.008, T 0.152, I -0.276, K -0.018, M -0.103, W -0.38, Y 0.014, S -0.013, P -0.335, H -0.01, Q -0.105, C -0.14, D -0.102, G -0.153, L -0.256, V -0.171, F -0.421
Q10: D -0.308, G -0.602, I -0.464, T -0.357, N -0.477, M -0.27, R -0.605, L -0.453, K -0.359, A -0.263, E -0.394, P -0.741, C -0.381, Y -0.626, W -0.718, H 0.025, F -0.626
D9: G -0.068, L -0.106, F -0.013, Y -0.148, M -0.082, W -0.171, V -0.172, I -0.176, P -0.074, K 0.046, T 0.038, S 0.098, R -0.143, Q 0.018, C 0.158, A 0.088
Y17: N -0.095, D -0.184, V -0.153, S -0.207, A -0.165, T -0.369, E -0.168, L -0.133, M 0.083, I -0.175, H -0.127, C -0.204, P -0.838, F 0.026, Q -0.196, W -0.181, R -0.369
